B1: CPEB3 Ribozyme (parent)
chain: GGGGGCCACAGCAGAAGCGUUCACGUCGCGGCCCCUGUCAGAUUCUGGUGAAUCUGCGAAUUCUGCUGU

Variants of: B1
Assay: self-cleavage, relative activity (ratio to wild type); higher = more cleavage; co-transcriptional

First: C66U U69G
Second: U67C G68C
The self-cleavage of the first is higher: 1.06 for the first, 1.01 for the second.

First: C66U U67A
Second: G68C U69C
The self-cleavage of the first is lower: 1.02 for the first, 1.1 for the second.

First: C66U G68U
Second: C66U G68A
The self-cleavage of the first is lower: 0.969 for the first, 0.976 for the second.

Compared with G68C, G68U is higher in self-cleavage: 1 for the first, 1.01 for the second.

Compared with G68A, C66G U67C is lower in self-cleavage: 1.01 for the first, 0.914 for the second.

First: C66G G68U
Second: C66G G68C
The self-cleavage of the first is higher: 0.932 for the first, 0.735 for the second.

First: G68A U69C
Second: G68A U69A
The self-cleavage of the first is lower: 1.05 for the first, 1.08 for the second.

Going from C66A U69G to U67C U69C, the self-cleavage rises from 0.882 to 1.1.

First: U67C
Second: U67A
The self-cleavage of the first is higher: 0.997 for the first, 0.989 for the second.

Going from U67G to U67G G68A, the self-cleavage rises from 1.02 to 1.08.

U67G U69G gave a self-cleavage of 1.11.
